B1: Protein REG2 (Saccharomyces cerevisiae), P38232 (parent)
chain: MTLSNCDSLDNLFQDPPEEEESSKFVEAVRTLMNRNDMGYPPAAANGTYCLKKIKSLNAKQWKINKKRMCMLPAVKKKNFDFHEQRSLILNLNLWKFIKFINCSSKNNYNKNNKHVRSSNNTVKNENVLPLQKHKKVDNDQRLENLFWRSWFKARKRRDIMGKPRERHIKFNDNVEQCIITDEHFIQRLPSTRLNSTDEQRPCSKSELDPCIGNAASKRSFYDYNSVYVASDAIITTAAATAIISSNSGDYQRGHDVRDVPRNVLLQAGETDFSSVLRVDSDLKLSNISHHSPVKPSSTSSHSTFIFESETDTDTDTDAETENDIDAYIDTSIPNLLL
partner: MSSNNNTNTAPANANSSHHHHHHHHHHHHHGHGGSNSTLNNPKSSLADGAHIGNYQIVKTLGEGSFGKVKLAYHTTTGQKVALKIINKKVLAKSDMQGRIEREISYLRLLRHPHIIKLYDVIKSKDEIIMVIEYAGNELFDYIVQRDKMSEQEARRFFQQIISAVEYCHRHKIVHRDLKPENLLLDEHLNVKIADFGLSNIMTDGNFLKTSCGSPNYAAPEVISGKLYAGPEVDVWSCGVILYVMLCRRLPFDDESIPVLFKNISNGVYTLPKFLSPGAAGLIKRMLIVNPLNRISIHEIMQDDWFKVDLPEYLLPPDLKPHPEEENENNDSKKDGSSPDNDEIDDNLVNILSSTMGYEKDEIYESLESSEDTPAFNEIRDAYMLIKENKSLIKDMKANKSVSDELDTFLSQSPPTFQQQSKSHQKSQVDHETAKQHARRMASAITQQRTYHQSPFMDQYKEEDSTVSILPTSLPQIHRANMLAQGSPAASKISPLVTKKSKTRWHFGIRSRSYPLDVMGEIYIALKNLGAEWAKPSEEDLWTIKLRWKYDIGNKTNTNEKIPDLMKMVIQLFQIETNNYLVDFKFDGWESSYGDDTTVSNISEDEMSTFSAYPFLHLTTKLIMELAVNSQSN
B2: Protein REG2 (Saccharomyces cerevisiae), P38232 (parent)
chain: B1 chain
B3: Carbon catabolite-derepressing protein kinase (Saccharomyces cerevisiae), P06782 (parent)
chain: B1 partner
partner: B1 chain

Variants of: B1
Conditions: with snf1_yeast SNF1, P06782

Variant	effect of a mutation on the interaction
MTLSNCDSLDNLFQDPPEEEESSKFVEAVRTLMNRNDMGYPPAAANGTYCLKKIKSLNAKQWKINKKRMCMLPAVKKKNFDFHEQRSLILNLNLWKFIKFINCSSKNNYNKNNKHVRSSNNTVKNENVLPLQKHKKVDNDQRLENLFWRSWFKARKRRDIMGKPRERHMKANDNVEQCIITDEHFIQRLPSTRLNSTDEQRPCSKSELDPCIGNAASKRSFYDYNSVYVASDAIITTAAATAIISSNSGDYQRGHDVRDVPRNVLLQAGETDFSSVLRVDSDLKLSNISHHSPVKPSSTSSHSTFIFESETDTDTDTDAETENDIDAYIDTSIPNLLL [I169M;F171A]	with no effect

Variants of: B2
Conditions: with pp12_yeast GLC7, P32598
Chain of pp12_yeast GLC7, P32598 (P32598 whole entry): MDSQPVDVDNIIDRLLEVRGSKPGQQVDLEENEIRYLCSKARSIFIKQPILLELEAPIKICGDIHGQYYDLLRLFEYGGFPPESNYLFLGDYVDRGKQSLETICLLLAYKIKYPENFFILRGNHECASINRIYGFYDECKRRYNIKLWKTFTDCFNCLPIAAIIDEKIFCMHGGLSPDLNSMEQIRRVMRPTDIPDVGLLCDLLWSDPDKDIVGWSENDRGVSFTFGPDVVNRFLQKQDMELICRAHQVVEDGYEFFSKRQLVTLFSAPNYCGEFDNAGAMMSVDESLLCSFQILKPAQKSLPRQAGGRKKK

Variant	effect of a mutation on the interaction
MTLSNCDSLDNLFQDPPEEEESSKFVEAVRTLMNRNDMGYPPAAANGTYCLKKIKSLNAKQWKINKKRMCMLPAVKKKNFDFHEQRSLILNLNLWKFIKFINCSSKNNYNKNNKHVRSSNNTVKNENVLPLQKHKKVDNDQRLENLFWRSWFKARKRRDIMGKPRERHMKANDNVEQCIITDEHFIQRLPSTRLNSTDEQRPCSKSELDPCIGNAASKRSFYDYNSVYVASDAIITTAAATAIISSNSGDYQRGHDVRDVPRNVLLQAGETDFSSVLRVDSDLKLSNISHHSPVKPSSTSSHSTFIFESETDTDTDTDAETENDIDAYIDTSIPNLLL [I169M;F171A]	disrupting interaction strength

Variants of: B3
Conditions: with reg2_yeast REG2, P38232

Variant	effect of a mutation on the interaction
T210A	disrupting interaction strength
K84R	decreasing interaction strength

Reference: IntAct's records for PubMed 27107116
